The nature of the data set: yeast display, Sf9 membrane polyspecificity reagent, FACS + sequencing; frameworks hold sequencing errors. In a few lines: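 After 36–48 hours of galactose induction, yeast (Saccharomyces cerevisiae BJ5465) displaying a synthetic nanobody library were stained at 4 °C for 1 hour with 10% biotinylated, detergent-solubilized Sf9 membrane reagent. Streptavidin microbeads enriched the stained cells before FACS sorting into low and high (top ~1%) gates on anti-HA and streptavidin fluorescence. Each clone's polyreactivity label reflects its gate of origin.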
Take “QVQLVESGGGLVQAGGSLRLSCAASGSIFDGNAMGWYRQAPGKERDLVAANTKNDGTTYYADSVKGRFTISRDNAKNTVYLQMNSLKQEDTAVYYCAAESVYQVYTYVSSGDYWGQGTQVTVSS”: the “polyreactivity (PSR sort gate)” value is “low polyreactivity”.

In the case of “QVQLVESGGGLVQAGGSLRLSCAASGSIFDGNAMVSYRQAPGKDRELVADISRGGSTYYADSVKGPFTISRDNAKNTVYLQMNSLTPEDTAVYYCNVEFFFWPYEYGYWGQGTQVTVSS”, the “polyreactivity (PSR sort gate)” value was “low polyreactivity”.

As to “QVQLVESGGGLVQAGGSLRLSCAASGSIFDGNDMGWYRQAPGKEREKVAAITIGDASRFYADSVKGRFTISRDNAKNTVYFQMNRLKPEDTAVYYCAADRPGLEDDPIYDYWGQGTQVTVSS”, the “polyreactivity (PSR sort gate)” value is given as “low polyreactivity”.

Turning to “QVQLVESGGGLVQAGGSLRLSCAASGSIFDGYAMGWYRQAPGKEREFVASIRFSTGRTYYADSVKGRFTISRDNAKNTVYLQMNSLKPEDTAVYYCNAPQGFVWRYSSWGPYDYWGQGTQVTVSS”, the “polyreactivity (PSR sort gate)” value is “high polyreactivity”.

Turning to “QVQLVESGGGLVQAGGSLRLSCAASGSIFDGYAMGWYRQAPGKETELVARITWSGGSTYYADSVKWRFTISRDNAKNTVYLQMNSLKPEDTAVYYCNVDQVHPTRGLDYWGQGTQVTVSS”, the “polyreactivity (PSR sort gate)” value is listed as “low polyreactivity”.

As to “QVQLVESGGGLVQAGGSLRLSCAASGSIFDGYAMGWYRQAPWKERELVAAISYTGGRKYYADSVKGRFTISRDNAKNTVYLQMNSLKPEDTAVYYCAARYHLGRSPRYYRGQGTQVTVSS”, the “polyreactivity (PSR sort gate)” value is listed as “high polyreactivity”.

Turning to “QVQLVESGGGLVQAGGSLRLSCAASGSIFDHYVMGWYRQSPGKERELVAAITSGDRTNYADSVKGRFTISRDNAKNTVYLQMNSLKPEDTAVYYCNADYQSYFYYTTWYYEYDYWGQGTQVTVSS”, the “polyreactivity (PSR sort gate)” value is given as “low polyreactivity”.

On to “QVQLVESGGGLVQAGGSLRLSCAASGSIFDINAMGWYRPAPGKERELVADIRGGDSTNYADSVKGRFTISRDNATNTVYLQMNSLKPEDTAVYYSAARWRRSKYGVYPQRPYDYWGQGTQVTVSS”, for which the “polyreactivity (PSR sort gate)” value is “high polyreactivity”.

As for “QVQLVESGGGLVQAGGSLRLSCAASGSIFDINVMGWYRQAPGKERELVAAITSGGRTNYADSVKGRFTISRDNAKNTVYLQMNSLKPEDTAVYYCAAVRHRQTYPKYNYWGQGTQVTVSS”, the “polyreactivity (PSR sort gate)” value is reported as “high polyreactivity”.

As for “QVQLVESGGGLVQAGGSLRLSCAASGSIFDIYAKGRSRQAPGKERELVAAISSGGSTTYADSVKGRFTISRDNAKNTVYFQMNCLTPEDTAVYYCATAYTPFAYLVTEMDYWGQGTQVTVLS”, the “polyreactivity (PSR sort gate)” value is “low polyreactivity”.

For “QVQLVESGGGLVQAGGSLRLSCAASGSIFDIYCMGWYRHAPGKERELVASISGGAGSTNYADSVKGRFTISRDNAKNTVYLQMNSLKPEDTAVYYCAAEVYVPDYFQHKFDVEYEYWGQGTQVTVSS”, the “polyreactivity (PSR sort gate)” value is on record as “low polyreactivity”.

“QVQLVESGGGLVQAGGSLRLSCAASGSIFDLYAMGWYRQAPGKERELVAAISSGATTNYADSVKGRFTISRDNAKNTVYLQMNSLKPEDTAVYYCAKYYRISSLYVIVSAYVYWGQGTQVTVSS”: the “polyreactivity (PSR sort gate)” value was “low polyreactivity”.

On to “QVQLVESGGGLVQAGGSLRLSCAASGSIFDNYAMGCYRQAPRKERELVAAINFSDGDTYYGDSVKGRFTISRDNAKNTVYLQMNSLKPEDTAVYYCAAEVWYPPEYYDEYDYWGQGTQVTVSS”, for which the “polyreactivity (PSR sort gate)” value is reported as “low polyreactivity”.

Regarding “QVQLVESGGGLVQAGGSLRLSCAASGSIFDPYAMGWYRQAPGKERELVAAINGGSGSTFYADSVKGRFTISRDNAKNTVNLQMNSLKPEDTAVYYCAAKIWRYSPSYYPEPRGDYWGQGTQVTVSS”, the “polyreactivity (PSR sort gate)” value was “low polyreactivity”.

“QVQLVESGGGLVQAGGSLRLSCAASGSIFDPYAMGWYRQAPGKERELVAAITASGSSTYYADSVKGRFTISRDNAKNTVYLQMNSLIPEDTAVYYCAADRANWEYLLSCLGYDYWGQGTQVTVSS”: the “polyreactivity (PSR sort gate)” value is reported as “low polyreactivity”.

“QVQLVESGGGLVQAGGSLRLSCAASGSIFDRYAMGWYRQAPGKERELVAAITGSGGSTYYADSVKGRFTISRDNAKNTVYLQMNSLKPEDTAVYYCNARARGAYVRYGYWGQGTQVTVSS”: the “polyreactivity (PSR sort gate)” value is reported as “high polyreactivity”.

For the origin of these results see the nanobody polyreactivity screen of Harvey et al. (2022).
